Data set [1] deals with rS1-D34 (Vibrio vulnificus CMCP6, UniProt A0A3Q0L6Y6). The experiment in a line: NMR titration.
In data set [2] the target is rS1-D45 (Vibrio vulnificus CMCP6, UniProt A0A3Q0L6Y6). The experiment in a line: EMSA. (In EMSA bound probe runs differently from free probe, usually more slowly.)
Data set [3] has as its target rS1-D5 (Vibrio vulnificus CMCP6, UniProt A0A3Q0L6Y6 364-434). The experiment in a line: EMSA.
In data set [4] the target is rS1-D3 (Vibrio vulnificus CMCP6, UniProt A0A3Q0L6Y6 192-260). The data set is described as follows: EMSA.
Data set [5] addresses rS1-D4 (Vibrio vulnificus CMCP6, UniProt A0A3Q0L6Y6 277-347). The data set is described as follows: EMSA.
For data set [6], the target named is rS1 full-length (Vibrio vulnificus CMCP6, UniProt A0A3Q0L6Y6). The experiment in a line: EMSA.

In general, Kd refers to the concentration at which binding is half-saturated. High values mean lower affinity, low ones higher affinity. Take UCAUGAAU (ssRNA) [Asw-8]: binding in data set [1] was characterised by a dissociation constant (Kd) of 197 ± 50 µM.

In data set [1], ACUCAUGAAU (ssRNA) [Asw-10] displayed a Kd of 57 ± 6 µM.

B1: add Asw full-length (112 nt) (structured_RNA)
RNA: GCUUCAUAUAAUCCUAAUGAUAUGGUUUGGGAGUUUCUACCAAGAGCCUUAAACUCUUGAUUAUGAAGUCUGUCGCUUUAUCCGAAAUUUUAUAAAGAGAAGACUCAUGAAU
As to B1, the binding result in data set [2], in data set [3], in data set [4] and in data set [5] was “no binding” each time. Moreover, in data set [6], the Kd amounted to 3 ± 1 µM.

The record behind these values is article PMC6237739.
